We go through 15 sequences from patent US20020051974.

Like-named read-outs stand apart in the source and are kept apart here.

Data set [1] relates to T1, VEGF (vascular endothelial growth factor), P15692-4.
T1 sequence: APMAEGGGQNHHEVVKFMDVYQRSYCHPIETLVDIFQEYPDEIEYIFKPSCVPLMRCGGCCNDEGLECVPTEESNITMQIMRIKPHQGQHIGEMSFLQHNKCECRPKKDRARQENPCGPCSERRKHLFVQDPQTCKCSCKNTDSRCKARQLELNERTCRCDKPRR
In words: filter. The conditions noted are these: 50% of RNA bound, PBS.

The test system is the same in data set [2]. The conditions noted are these: CITED Jellinek et al 1994, cited from earlier work.

Take “GGGAAUGGAUCCACAUCUACGAAUUCAGGCAGCGUAGAGGGUUCACUCUGCCGAGUUUCACUGCAGACUUGACGAAGCUU [V01]”: the EC50 in data set [1] (1 mM MgCl2, room temperature) was 0.019 µM.

Take “GGGAAUGGAUCCACAUCUACGAAUUCAGGUGGAAAGCAAGUUCCGCGCACGUUAAUUUCACUGCAGACUUGACGAAGCUU [V08]”: the EC50 in data set [1] (1 mM MgCl2, room temperature) was determined as 0.0144 µM.

The sequence “GGGAAUGGAUCCACAUCUACGAAUUCCGCGCACGUAGGUUGGGUGUAACUGCGUUGUUCACUGCAGACUUGACGAAGCUU [V05]” came in with an EC50 in data set [1] (1 mM MgCl2, room temperature) of 0.0153 µM.

“GGGAAUGGAUCCACAUCUACGAAUUCCGCGCACGUAGGUUGGGUGUAACUGCGUUGUUCACUGCAGACUUGACGAAGCUU [V06]” displayed an EC50 in data set [1] (1 mM MgCl2, printed sequence identical to V05) of 0.0369 µM.

As to “GGGAAUGGAUCCACAUCUACGAAUUCCGCGCACGUCACGGGCCGACACGAAUAUGGUUCACUGCAGACUUGACGAAGCUU [V10]”, in data set [1] (1 mM MgCl2, room temperature), the EC50 was 0.0314 µM. In other words, the double-digit nanomolar range.

“GGGAAUGGAUCCACAUCUACGAAUUCCGCGCGCGCUAACCUUGNGGNGNAAGUAUGUUCACUGCAGACUUGACGAAGCUU [V13]” had an EC50 in data set [1] (1 mM MgCl2, sequence contains N) of 0.00832 µM. This counts as single-digit nanomolar.

Turning to “GGGAAUGGAUCCACAUCUACGAAUUCCGUUCUGCCGAGACUGCACGUGUGCUUGAAUUCACUGCAGACUUGACGAAGCUU [V09]”, the EC50 in data set [1] (1 mM MgCl2, room temperature) is 0.0242 µM.

As to “GGGAAUGGAUCCACAUCUACGAAUUCGAGGGUCCGUCUGCCGAGUCUUGUAACACCUUCACUGCAGACUUGACGAAGCUU [V02]”, the EC50 in data set [1] (1 mM MgCl2, room temperature) is 0.0213 µM.

Sequence “GGGAAUGGAUCCACAUCUACGAAUUCGAUGGCGUUAGUGGGAAUGAUUCUGCCGAGUUCACUGCAGACUUGACGAAGCUU [V07]” returned an EC50 in data set [1] (1 mM MgCl2, room temperature) of 0.0173 µM. This EC50 and that of the sequence before are within 1.5-fold of each other.

Consider “GGGAAUGGAUCCACAUCUACGAAUUCGGAUAUUCCGCGCACGUCAUUUCAUCAGCUUUCACUGCAGACUUGACGAAGCUU [V19]”, for which the EC50 in data set [1] (1 mM MgCl2, room temperature) was found to be 0.00761 µM.

Sequence “GGGAAUGGAUCCACAUCUACGAAUUCGGGAACAGCUCUAUUCCGCGCACGUUUGAGUUCACUGCAGACUUGACGAAGCUU [V04]” gave an EC50 in data set [1] (1 mM MgCl2, room temperature) of 0.00452 µM.

Sequence “GGGAAUGGAUCCACAUCUACGAAUUCUGUAAGAUUGGUCUCCAGACUGCCGAGCUGUUCACUGCAGACUUGACGAAGCUU [V18]” registered an EC50 in data set [1] (1 mM MgCl2, text gives 8.5) of 0.00852 µM.

As for “GGGAAUGGAUCCACAUCUACGAAUUCUUUGAAGAGGGUCAAUCCGCGCACGUUACGUUCACUGCAGACUUGACGAAGCUU [V03]”, the EC50 in data set [1] (1 mM MgCl2, room temperature) is 0.0326 µM.

On to “GGGAGCUCAGAAUAAACGCUCAAACGGUUCUGUGUGUGGACUAGCCGCGGCCGUUCGACAUGAGGCCCGGAUCCGGC [VEGF126 (RNA transcript of printed DNA)]”, for which the Kd in data set [2] (unit not repeated for this value) is 0.00014 µM. Also, the EC50 in data set [1] (1 mM MgCl2, room temperature) was determined as 0.0199 µM.

For the sequence “GGGAGCUCAGAAUAAACGCUCAAGACCCAUCGUCAACGGUUGAGUCUGUCCCGUUCGACAUGAGGCCCGGAUCCGGC [VEGF40 (RNA transcript of printed DNA)]”, the Kd in data set [2] is 0.00019 µM. Besides, the EC50 in data set [1] (1 mM MgCl2, room temperature) amounted to 0.00415 µM.

One may read the EC50 as the midpoint of the concentration-response curve. Low readings indicate higher potency in that assay, high ones lower potency in that assay. What is called Kd is a measure of binding affinity in units of concentration.
